Laboratory results as given in patent publication US11180762B2, “Methods and compositions for the treatment of cancer” (CHILDREN'S MEDICAL CENTER CORPORATION, priority 2014, dated 2021).
“Also recorded” adds a separate entry of the source.

B1: EpCAM-AsiC: EpCAM aptamer-siRNA chimera, siRNA cargo not specified at the place; 2'-fluoropyrimidines, 3'-dTdT (nucleic acid)
sense: GCGACUGGUUACCCGGUCGUUUUGAAGAAGAUCACCCUCCUUATT
antisense: UAAGGAGGGUGAUCUUCUUCATT
modifications: DNA at T, 2'-fluoro at CU, RNA at AG, backbone not given here; further chemistry not fully specified
notes: EpCAM aptamer-siRNA chimera, siRNA cargo not specified at the place; 2'-fluoropyrimidines, 3'-dTdT
B2: PLK1 EpCAM-AsiC: EpCAM aptamer linked by U-U-U to PLK1 siRNA sense strand (SEQ ID NO: 1), annealed to antisense strand (SEQ ID NO: 2) (nucleic acid)
sense: B1 sense
antisense: UAAGGAGGGUGAUCUUCUUCATT
modifications: DNA at T, 2'-fluoro at CU, RNA at AG, backbone not given here; EpCAM aptamer fused to sense strand

Experiments:
AKT1 = AKT1 mRNA and protein knockdown in breast cancer cell lines; type: cell-based, human; conditions: basal-A, luminal, basal-B lines, fibroblasts
Method: For uptake and silencing treatment, cells were plated at low density (10,000 cells/well in 96-well plates) and treated immediately. All AsiC and siRNA treatments were performed in either OptiMEM or WIT medium. Cell viability was assessed by CellTiter-Glo (Promega) or by Trypan-Blue staining in 96-well plates.
For flow cytometry, cells were stained as previously described (Yu, F. et al (2007). let-7 Regulates Self Renewal and Tumorigenicity of Breast Cancer Cells. Cell 131, 1109-1123. ), briefly, direct immunostaining of EpCAM and AKT1 was performed using 1:50 dilutions of hAb for 30-60 minutes at 4° C. (BioLegend/BD). Cells were stained in PBS containing 0.5% FCS, 1 mM EDTA, and 25 mM HEPES. Samples were washed twice in the same buffer. Data was acquired using FACS-Canto II (BD Biosciences). Analyses were performed in triplicate and 10,000 gated events/sample were counted. All data analysis was performed using FlowJo (Treestar Inc.).
qRT-PCR analysis was performed as described (Petrocca, F., et al. (2008). E2F1-regulated microRNAs impair TGFbeta-dependent cell-cycle arrest and apoptosis in gastric cancer. Cancer Cell 13, 272-286). Briefly, total RNA was extracted with Trizol (Invitrogen) and cDNA prepared from 1000 ng total RNA using Thermoscript RT kit (Invitrogen) as per the […] (Applied Biosystems) and a BioRad C1000 Thermal Cycler (Biorad). Relative CT values were normalized to GAPDH and converted to a linear scale.

EpCAM+ cell lines = experiment: In vitro gene knockdown by AsiC designs; type: cell-based, human
breast cancer cell lines = experiment: Sphere (mammosphere) formation assay; type: cell-based, human
Method: For colony formation assay, 1,000 viable cells were treated for 6 h in round bottom 96-well plates and then transferred to 10-cm plates in serum-containing medium. Medium was replaced every 3 d. After 8-14 d, cells were fixed in methanol (−20 C) and stained with crystal violet. For sphere formation assay, 1,000/ml viable cells were treated for 6 h in round bottom 96-well plates and then cultured in suspension in serum-free DMEM/F12 1:1 (Invitrogen), supplemented with EGF (20 ng/ml, BD Biosciences), B27 (1:50, Invitrogen), 0.4% bovine serum albumin (Sigma) and 4 μg/ml insulin (Sigma). Spheres were counted after 1 or 2 weeks.

[1] = system: basal-B TNBC cells (MB436, MB231); experiment: Tumor initiation by ex vivo treated EpCAM− basal-B cells in nude mice; conditions: cells treated ex vivo overnight, then implanted; listed as PLK1 EpCAM-AsiCs
Excerpt: EpCAM was chosen for targeting in part because EpCAM marks T-ICs and metastasis-initiating cells (M-IC).^20,22,26,27,31 To investigate whether EpCAM-AsiCs inhibit T-ICs, we compared colony and mammosphere formation (T-IC functional surrogate assays) after mock treatment, treatment with paclitaxel or with EpCAM-AsiCs against eGFP or PLK1. […] T-IC inhibition was specific, since eGFP AsiCs had no effect. […] To evaluate the effect of EpCAM-AsiCs on tumor initiation, EpCAM+MB468 cells stably expressing luciferase were treated overnight with medium or PLK1 or eGFP EpCAM-AsiCs and equal numbers of viable cells were then implanted sc in nude mice. […] Thus PLK1 EpCAM-AsiCs inhibit in vitro T-IC assays and tumor initiation selectively for EpCAM+ breast cancers.
EpCAM-AsiCs inhibit T-ICs of EpCAM+ tumors. EpCAM was chosen for targeting partly because EpCAM marks T-ICs and metastasis-initiating cells (M-IC). To investigate whether EpCAM-AsiCs inhibit T-ICs, we compared colony and mammosphere formation (T-IC functional surrogates) after mock treatment, treatment with paclitaxel or with EpCAM-AsiCs against eGFP or PLK1. […] To evaluate EpCAM-AsiC's effect on tumor initiation, viable luc+ EpCAM+ MB468 and EpCAM− MB231 cells, treated overnight with medium or PLK1 or GFP EpCAM-AsiCs, were implanted sc in nude mice. […] Thus EpCAM-AsiCs inhibit tumor initiation in EpCAM+ breast cancers.

MB231-luc-mCherry tumors = experiment: Tumor inhibition, EpCAM− MB231-luc-mCherry xenograft; type: in vivo, nude mice; conditions: 5 mg/kg sc every 3 d (72 h) for 2 wks
Method: For tumor inhibition studies, MB468-luc (5×10^6) and MB231-luc-mCherry (5×10^5) cells trypsinized with Tryple Express (Invitrogen), resuspended in a 1:1 WIT-Matrigel solution and injected subcutaneously in the flank of 8-week old female Nu/J mice (Stock #002019, Jackson Laboratories). Tumors size was analyzed daily using the IVIS Spectra, after 5 days tumors were clearly visible. […] Mice were treated every 72 h for 14 days.

[2] = listed as EpCAM-AsiC targeting PLK1

| Molecule | AKT1 mRNA and protein knockdown across cell lines (AKT1) | gene knockdown, EpCAM+ vs EpCAM− cells (EpCAM+ cell lines) | sphere/mammosphere formation, EpCAM+ basal-A and luminal lines (breast cancer cell lines; [2]) | sphere/mammosphere formation, EpCAM− basal-B lines (breast cancer cell lines; [2]) | sphere/mammosphere formation, EpCAM+ basal-A and luminal lines (breast cancer cell lines; listed as PLK1 EpCAM-AsiCs) | sphere/mammosphere formation, EpCAM− basal-B lines (breast cancer cell lines; listed as PLK1 EpCAM-AsiCs) | tumor initiation, EpCAM− basal-B cells [1] | growth of EpCAM− MB231 tumors (MB231-luc-mCherry tumors; [2]) | growth of EpCAM− MB231 tumors (MB231-luc-mCherry tumors; listed as PLK1-targeting AsiCs) | growth of EpCAM− MB231 tumors (MB231-luc-mCherry tumors; listed as PLK1 EpCAM-AsiCs) |
| --- | --- | --- | --- | --- | --- | --- | --- | --- | --- | --- |
| B1 | uniform and selective for EpCAM+ cells | selectively knocked down expression in EpCAM+ breast and colon cancer cell lines but not in normal epithelial cells or mesenchymal tumor cells |  |  |  |  |  |  |  |  |
| B2 |  |  | specifically inhibited sphere formation in basal A and luminal; also recorded: decreased the number of spheres only in basal A and luminal cells | had no effect on basal B cells | more strongly inhibited colony and mammosphere formation of EpCAM+ basal-A TNBCs and luminal cell lines than paclitaxel; also recorded: eliminated mammosphere and colony formation; also recorded: more strongly inhibited colony and mammosphere formation of multiple EpCAM+ basal-like TNBCs and a luminal cell line than paclitaxel | inactive against EpCAM− basal-B TNBCs | had no effect on basal-B TNBC tumor initiation; also recorded: only in EpCAM+ tumors | remained unchanged | continued to grow | had no effect on EpCAM− mesenchymal TNBCs; also recorded: had no effect on EpCAM− basal-B xenografts |
